Measurements from patent publication US20220160843A1 (priority 2019, published 2022).

Key:
[1] = tested on: P. aeruginosa strain ATCC 17647; assay: Minimal Biofilm Eradicating Concentration (MBEC), Calgary Biofilm Device; type: cell-based, Pseudomonas aeruginosa; conditions: 24 h biofilm, 24 h treatment; minimum concentration removing >95% of biofilm biomass (crystal violet)
Source text: All samples were examined in triplicate.

[2] = tested on: P. aeruginosa; assay: Time-kill assay of GN lysin activity; type: cell-based, Pseudomonas aeruginosa; conditions: for Log10 CFU/mL T = 3 hr / Log10 CFU/mL T = l hr: lysin 10 μg/mL, T = 0 7.8; for Log10 CFU/mL T = 3 hr: buffer control 7.2, limit of detection 3.7; for Log10 CFU/mL T = l hr: buffer control 7.7
Procedure: All treatments were incubated at 37° C. with aeration.

[3] = tested on: P. aeruginosa; assay: Minimal inhibitory concentration (MIC), modified CLSI broth microdilution in CAA or CAA/HuS; type: cell-based, Pseudomonas aeruginosa; conditions: for MIC (μg/mL) in CAA: CAA media; for MIC (μg/mL in CAA/HuS): CAA supplemented with 25% human serum
[4] = tested on: human erythrocytes; type: cell-based
Procedure: The hemolytic activity of the GN lysins was measured as the amount of hemoglobin released by the lysis of human erythrocytes (30). Briefly, 3 ml of fresh human blood cells (hRBCs) obtained from pooled healthy donors (BioreclamationIVT) in a polycarbonate tube containing heparin was centrifuged at 1,000×g for 5 min at 4° C. The erythrocytes obtained were washed three times with phosphate-buffered saline (PBS) solution (pH 7.2) and resuspended in […]. […] Intact erythrocytes were pelleted by centrifugation at 1,000×g for 5 min at 4° C., and the supernatant was transferred to a new 96-well plate. The release of hemoglobin was monitored by measuring the absorbance at 570 nm.

[5] = tested on: carbapenem-resistant clinical strain, WC-452; assay: Checkerboard assay to examine synergy with antibiotics in CAA/HuS; type: cell-based, P. aeruginosa
Procedure: Fractional inhibitor concentration index (FICI) values were determined for all combinations; values of <0.5 indicate synergy.
The checkerboard assays is based on a modification of the CLSI method for MIC determination by broth microdilution (26, 29). Checkerboards were constructed by first preparing columns of a 96-well polypropylene microtiter plate, in which each well had the same amount of antibiotic diluted 2-fold along the horizontal axis. […] Summation fractional inhibitory concentrations (ΣFICs) were calculated for each drug and the minimum ΣFIC value (ΣFICmin) was used to determine synergy. ΣFICs were calculated as follows: ΣFIC=FIC A+FIC B, where FIC A is the MIC of each antibiotic in the combination/MIC of each antibiotic alone, and FIC B is the MIC of each GN lysin in the combination/MIC of each GN lysin alone. The combination is considered synergistic when the ΣFIC is ≤0.5, strongly additive when the ΣFIC is >0.5 to <1, additive with the ΣFIC is 1−<2, and antagonistic when the ΣFIC is ≥2.

[6] = CAA/HuS, ‡ indicates bactericidal activity
[7] = HEPES buffer, ‡ indicates bactericidal activity

B1: GN10: Native lysin, GenBank YP_002600773.1, SEQ ID NO: 22 (protein)
chain: MSKQGGVKVAQAVAALSSPGLKIDGIVGKATRAAVSSMPSSQKAATDKILQSAGIGSLDSLLAEPAAATSDTFREVVLAVAREARKRGLNPAFYVAHIALETGWGRSVPKLPDGRSSYNYAGLKYAAVKTQVKGKTETNTLEYIKSLPKTVRDSFAVFASAGDFSRVYFWYLLDSPSAYRYPGLKNAKTAQEFGDILQKGGYATDPAYAAKVASIASTAVARYGSDVSSVA
modifications: Pseudomonas phage phi2954
- MBEC [1]: 0.5 µg/mL
- Log10 CFU/mL T = 3 hr [2, 6]: 7.4 Log10 CFU/mL
- Log10 CFU/mL T = l hr ([2]; CAA/HuS): 7.4 Log10 CFU/mL
- Log10 CFU/mL T = 3 hr [2, 7]: <3.7‡ Log10 CFU/mL
- Log10 CFU/mL T = l hr [2, 7]: 5.7 Log10 CFU/mL
- MIC (μg/mL) in CAA [3]: 8 µg/mL
- MIC (μg/mL in CAA/HuS) [3]: 16 µg/mL
- hemolytic activity [4]: no hemolytic activity whatsoever

B2: GN105: Native lysin, GenBank WP_016046696.1, SEQ ID NO: 25 (protein, listed as Pseudomonas aeruginosa)
chain: MAVVSEKTAGGRNVLAFLDMLAWSEGTSTIRGSDNGYNVVVGGGLFNGYADHPRLKVYLPRYKVYSTAAGRYQLLSRYWDAYRESLALKGGFTPSNQDLVALQQIKERRSLADIQAGRLADAVQKCSNIWASLPGAGYGQREHSLDDLTAHYLAAGGVLS
- MBEC [1]: 4 µg/mL
- Log10 CFU/mL T = 3 hr [2, 6]: 6.3 Log10 CFU/mL
- Log10 CFU/mL T = l hr ([2]; CAA/HuS): 7.0 Log10 CFU/mL
- Log10 CFU/mL T = 3 hr [2, 7]: <3.7 Log10 CFU/mL
- Log10 CFU/mL T = l hr [2, 7]: 6.6 Log10 CFU/mL
- MIC (μg/mL) in CAA [3]: >128 µg/mL
- MIC (μg/mL in CAA/HuS) [3]: 32 µg/mL
- hemolytic activity [4]: no hemolytic activity whatsoever

B3: GN108: Native lysin, GenBank YP_009288673.1, SEQ ID NO: 26 (protein)
chain: MILTKDGFSIIRNELFEGKLDQTQVDAINFIVEKATEYGLTYPEAAYLLATIYHETGLPSGYRTMQPIKEAGSDSYLRSKKYYPYIGYGYVQLTWEENYERIGKLIGIDLVKNPEKALEPLIAIQIAIKGMLNGWFTGVGFRRKRPVSKYNKQQYVAARNIINGKDKAELIAKYAIIFERALRSL
modifications: Acinetobacter phage phiAB6
- MBEC [1]: 0.125 µg/mL
- bactericidal activity in the time-kill assay format ([2]; 3-hour timepoint, 10 μg/mL, in either CAA/HuS or HEPES buffer): bactericidal activity
- Log10 CFU/mL T = 3 hr [2, 6]: <3.7‡ Log10 CFU/mL
- Log10 CFU/mL T = l hr ([2]; CAA/HuS): 5.7 Log10 CFU/mL
- Log10 CFU/mL T = 3 hr [2, 7]: <3.7‡ Log10 CFU/mL
- Log10 CFU/mL T = l hr [2, 7]: 6.4 Log10 CFU/mL
- synergy with antibiotics in the checkerboard assay [5]: synergize with a range of antibiotics
- FICI, Amikacin ([5]; lysin + amikacin): 0.156
- FICI, Azithromycin ([5]; lysin + azithromycin): 0.060
- FICI, Aztreonam ([5]; lysin + aztreonam): 0.250
- FICI, Ciprofloxacin ([5]; lysin + ciprofloxacin): 0.281
- FICI, Colistin ([5]; lysin + colistin): 0.133
- FICI, Fosfomycin ([5]; lysin + fosfomycin): 0.188
- FICI, Gentamicin ([5]; lysin + gentamicin): 0.188
- FICI, Imipenem ([5]; lysin + imipenem): 0.039
- FICI, Meropenem ([5]; lysin + meropenem): 0.250
- FICI, Piperacillin ([5]; lysin + piperacillin): 0.531
- FICI, Rifampicin ([5]; lysin + rifampicin): 0.125
- FICI, Tobramycin ([5]; lysin + tobramycin): 0.188
- MIC (μg/mL) in CAA [3]: 8 µg/mL
- MIC (μg/mL in CAA/HuS) [3]: 8 µg/mL
- hemolytic activity [4]: no hemolytic activity whatsoever
